assay: soluble on expression in E. coli; label from the status in PepcDB or PDB records

| Sequence | soluble on expression in E. coli |
| --- | --- |
| GFIDTHLHVESSLVTPFEFDRCVTPRGITTAICDPHEIANVCGLEGIRYFLEASAHLVMDLRVQLSSCVPSTHMETAGAALEAKDLAPLMDHPRVIGLAEFMNFPGVLMKDPGCMAKLEAFRGRHIDGHAPLLRGKDLNGYIAAGIRTEHEATTAEEALEKLRKGMRVLIREGSVSKDLHALVSILTERHAPYLCLCTDDRNPLDIAEHGHIDHMIRTAIRLGAPPLAVYRAASLSAADAFGLKDRGLIAPGRRADIAVLD | not soluble |
| DKVTQSSPDQTVASGSEVVLLCTYDTVYSNPDLFWYRIRPDYSFQFVFYGDDSRSEGADFTQGRFSVKHILTQKAFHLVISPVRTEDSATYYCAFTLPPPTDKLIFGKGTRVTVEP | soluble |
| MGSDKIHHHHHHMRQLLTYDLMESMRVTNQWMGASARALCSYPQLGLAANPFIQLTAAWGEVAERSFARMAAKPDWGISSIPGADGRDHVISIEPVMERAFGDLIRFDVQGREPTGRKILLVAPMSGHYATLLRKTVLSLLPDADVYITDWHNARDIPVSAGKFDIEDYTHYLVDFMREMGPDTNVIAVCQPAPLALAATAYLAEEDPKAQPRTLTLIGGPIDPDAAATDVTDFGRRVTMGHLEKFVVQRVGFKYAGAGRMVYPGIQQLASFMAMNAETHAKAFSDQVVAVSKGEASDHDKHNVFYDEYLAVMDMTAEFYLSTVERIFKNREIAKNTFVVDGKPVDIGKITSVAVKTVEGGKDDISAPGQCVAALDMLTGLPEEKKANYIEPDAGHYGIFAGKSWRNNIRPLVLEFIDANSGIKTPAKRAKPKLVEDPPVENVAV | not soluble |
| GPGSMKLRCFLLRYYPPGITLEYETSAGQVGQKTIGLLSLTPTTPLEPLVDKIIAEEPLLNGKYHDQIVTYLQRLVEKLIAGNNPNQTFTLFKSLRAHMLPLTNCAFNKNGTKFVTGSYDRTCKVWETATGNELVSLEGHRNVVYCVGFNNPYGNRVATGSFDKTCKIWDGESGQCLHTLTGHVTEIVCMSFNPQSTLIGTGSMDNTAKVWDVETGQELHTLMDHTAEIVALNFNTYGDLIVTGSFDHTAKLWDVRTGTVVHTLREHRGEISSVQFNYASNLVVTGSIDRTCKLWDVASGRCVSTLRGHTDEVLDVAFSVSGNMVASASADTTARVYNTATCHCIASLNDHEGEISKLEFNPQGTKIITASGDKRCNLWSVETGQVLQSLVGHTDEIFSCSFNYEGDTILTGSKDNTCRIWKS | not soluble |
| MGSDKIHHHHHHMTHPSVDQENLPQTASLPENIIEAAITWSIRLDYNDPTPETRQSFDQWLHADPLHRLAWQRVDSLNNLRNDCRSLPSRLAFDTLQEVDSRRQSRKLSRRNAMKLLSLAGITIATGWTVREHTPWQRLLADASTVTGEQRVLHLTDGTVVVLNTDSAVSFDLTEAQRLIVLQRGEMHITTGPDSEVSARIGRKRPFRVRTPFGELQALGTRFVVRLDEQHARVSVQEGAVELHPSAGGSSAIVQAGESRRLTGSSILPEADRYFEEDGWVSGVIAGKNIRLADLVAELSRYRPGYIVCDERVADLPISGIFHVKDTDKALQFLAQTQPVSVMYRTRFWVIVGPKSLYR | not soluble |
| GMPDSPTLLDLFAEDIGHANQLLQLVDEEFQALERRELPVLQQLLGAKQPLMQQLERNGRARAEILREAGVSLDREGLARYARERADGAELLARGDELGELLERCQQANLRNGRIIRANQASTGSLLNILRGQDAPSLYDSRGGTASSSRQRPLSQA | soluble |
| MGPRFQPDDTLYKRRNTLKVEYVPDDIVGRDNEIEEYEAALQPIINGEYPDNIFIYGKTGVGKTAVTNFLLNELRESADHFEVDLTVISLNCDGLSTSYQAAISLVNNLRGHENHIAETGHPQSKVYRLLWNELNKLSGSVIIVLDEIDHITDDTFLYQITRADNNGYIDNIQLGVIGISNDSTFREQLDAKVQSSLCETEISFPPYGTEELQKVLEQRAEIAFHESALEDGVIPLCAALGRQDGGDARRAITLLRKAGDLARTENANSVTTDHVERAQEKLEAQQSMDIMRDLTEHEQLTLYALTTLAAEGETPARSRIVYQRYKELCEFQGREPRTARRMRSFLSDFEILNLTLSEMEHRGQDGGTYRQHELNRDIATVVDALQTIIGEFGAHQSIIEYLPDSGEEFATM | not soluble |
| MRECISIHVGQAGVQIGNACWELYCLEHGIQPDGQMPSDKTIGGGDDSFNTFFSETGAGKHVPRAVFVDLEPTVIDEVRTGTYRQLFHPEQLITGKEDAANNYARGHYTIGKEIIDLVLDRIRKLADQCTGLQGFSVFHSFGGGTGSGFTSLLMERLSVDYGKKSKLEFSIYPAPQVSTAVVEPYNSILTTHTTLEHSDCAFMVDNEAIYDICRRNLDIERPTYTNLNRLIGQIVSSITASLRFDGALNVDLTEFQTNLVPYPRAHFPLATYAPVISAEKAYHEQLSVAEITNACFEPANQMVKCDPRHGKYMACCLLYRGDVVPKDVNAAIATIKTKRTIQFVDWCPTGFKVGINYEPPTVVPGGDLAKVQRAVCMLSNTTAIAEAWARLDHKFDLMYAKRAFVHWYVGEGMEEGEFSEAREDMAALEKDYEEVGVDSVEGEGEEEGEEY | soluble |
| MGSDKIHHHHHHMLSRTAENLFWLARYVERAEYLARTIEATLRVTALPSAYIGKTNEWDSALLTAGVGGNFYNFHDEANEQSVVDYLAFSSDNPSSIRNCIENARLNARSVRTALTGEMWDTLNSAWIELQEAWGKGTKTREDLTRFLRFVQEISLRFDGSAYRTMLRNDAYWFSRLGLHLERADNTARILDVKYHVLLPEEEHVGGPLDYYQWSSILRSVSALTAYHWVYRETLKPWLIADLLILNDTLPRSLASCYGNLTRNLDNIGVAYGRHGAAQRHARGVRNRLEHSKMDDIFQRGVHEFIQEFIADNARLGEVIAKQYLI | not soluble |
| MKLFERIHQDTEIRQIYDAIGQMEDEEAGWAYHNWFHVTNVVAMTEMILKQLAVSEEYLEAAKIAALLHDVGALQGKAGHALRGKQFAEAYFRKQKICLPYQEEILSSIENHSNGFDSEELMTLALIISDKLDITTSRVAKAGYFVPGMRQFQFLKKIEIMLSEQEVCVSFTAEEELDLEELNAFYFMPKVFKAIAAFSGKIQRRPIVLLNNQEWPVPKQKNPSTVH | not soluble |
| MSLSVNSRILWVDLENSPHVPFFKPIIEELEKHGYRVVITARDCFQVCGLADLYGLPYTRIGRHYGKHKALKVVGAVIRALQMRNTLARPLPSLAIAHGSRSQLLAAKILHIPALQLADYEFSNKMPSFLSSDWIMVPETIPAGLHWRNTSRISTYPGIKEDVYVPTFKPQTGILSELGILEKEIVVTIRPPASEAHYHNPKSDDLFYATVNWLSGIDNLRMVVLPRNSSQAAHIGKTWPALIGEAKMVIPDRVLDGLNLIWHSDLVISGGGTMNREAAALGVPVYSIFKGEIGAVDKYLASTGRLTLLETADDITNKVLIQKWERPSSPDHNPRPALKVIVDKILELVEGHHHHHH | not soluble |
| MSEYPILPSTLIPADPRFGCGPSKVRPAQLNAIVNAGADVIGTSHRQPAVKNIVGSIREGLSSLFSLPDGYEIVLSLGGATAFWDAATFGLIEKKSGHLTFGEFSGKFAKASAQAPWLDEPTIISAEPGDTPTPVAMEGCDVIAWAHNETSTGAMVPVIRPENSDGQLVAIDATSGAGGLPVDMHNADVYYFSPQKCFASDGGLWLAAMSPAALERIEKINASDRFIPAFLNLQTAVDNSRKNQTYNTPAVGTLLMLENQVEWMNANGGLDAMVERTTANSSALYEWAEKRAETTPYVTDPAKRSLVVGTIDFDDSIDAAALAKVLRANGILDVEPYRKLGRNQLRIGMFPAIDTADMDTLTAAIDYVLDNGFAQA | not soluble |
| GPLGSPEFMEGVLYKWTNYLTGWQPRWFVLDNGILSYYDSQDDVCKGSKGSIKMAVCEIKVHSADNTRMELIIPGEQHFYMKAVNAAERQRWLVALGSSKASLTDTRT | soluble |
| ACAWLEAQEEEEVGFPVRPQVPLRPMTYKAAVDLSHFLKEKGGLEGLIHSQRRQDILDLWIYHTQGYFPDWQNYTPGPGVRYPLTFGWCYKLVPVEPDKVEEANKGENTSLLHPVSLHGMDDPEREVLEWRFDSRLAFHHVARELHPEYFKN | soluble |
| MAHHHHHHMSRSSLIFENNNDNNEKKKRKLFQDEYNYQSCYPLSYLNVYNNNNNNNHNSNNNSNNDNNRIYDYAYSQSYNYTYDQTYNDVYNKIYNDSKNIAQNVLNVQVNEEPYDKSLNNSHTTYPFSNIINSNQLNSNILNNNEMIDMRNFYENGNFVNPMIENKDQNQFNEPNKNNLNNTMANVNNINNINNIQFDKSLLINCIDVLLNFMNYNNLKDTITEETLHENLINLRFYILRLNGGKVSQKKITEYFHKM | not soluble |
| MQNDAGQTVELYVPRKCSSSNRIIGPKDHASVQIDFVDVDPETGRMIPGKSTRYAICGAIRRMGESDDAILRLAQKDGLVPRDDVKSN | not soluble |
| MGSDKIHHHHHHMRVTADEGLYGEEATQGTEFRFHCETLFSRSSLHRFEIGLHRHSAFLQILYIFGGEGDALLEGRIEPIRPPVAIIVPPGFEHGFRFSRDIGGVIVTMLPGALPASVQALLLRNFQQPVLLRLRDFAEKDGLRSGFERISAEYEAREIGRDAMIEGQLATVVTLLSRAARPLLETSGEGLAEQRFERLLSLIARHIREPQKAGFYAGKLGLSETHLNRLVRSVSGLSLQRLIAKRQIEIAQQELIFTVSSVQMIAEGLGFADPAYFNRFFKRETGMTPRAWRLAEQRKMGDTGARLTPPQTSILASSR | not soluble |
| MKILAFETSTEACSVALHVDGAVRERFELAPRRHAELALPWAEQLLAEAGISRRQLDAIAVGRGPGAFSGVRLAIGIVQGIALALDLPVLAISTLQVLALRAPAEASHVLACIDARMGEVYAGLFERQGEALLTLGSEVVCAPEAVLLPQSTPQWAGVGTGLAAGEMPLQQRFAGRLSSVDAAALPHAADLLTLALPAALRGEGVAPERVEPAYLRDNVALTLVEQQAARAAKAAAVPRLEHHHHHH | not soluble |
| MGSDKIHHHHHHSGSFDPVTGAYTTDPITVTLTPKTVAVSTSVIANGERVYWATDKYPQGAGTFYWGSHTYTLESASDVTLAIPGINASGVCTATGSGTSLTINGCFSFSHNGTIYMGKSASCKSFFSLQSNLSSLTNFGDFVALTLGPGTNTIQLNKTGITDVNTTSFTYPSTTRSTSYRWTTYDINLQATLSAKTPPYTYLYCSVSQGLRVIMTTGGVVPNPFAMVPAASKPAYSPTISYSPALPIINTIAVNIRNITAIDILPRTVFNTGTISAWRTTYMEQPLTVTGQGNITRDFGASQNFNVLESWTCATTGQIDFRIMRDNTNANVCSGATYTHPVQTPQSLTAQWKAQSSTASGAWSARATVTFTLP | not soluble |
| GKDWMISAKGTFTFARNILDEVFETEATFNNPNRRRTGRPDGTMFGYNALGYFTYDDFNPDGSLKAGIATQPWGQVYPGDLRYEDLSGPNGVPDGKIDEHDQTVIGFSNWAPEIIFGLAPTVQWKNFDLNALIQGATRTSISLGETLVMPFFDSGSATKLQFSDHWTPDNTNAPYPRLTSEVTVNNHRQPSSWWVRDATYIRLKSIEIGYTLPRSALNFIGISSARVYASGQNLWTWTPFMKELIDPEAKSANGKYYMQQAVYAFGLNITF | not soluble |
| MGHHHHHHSHMRTYSDKNELKEEVLKSYKKYIAEFNDIPEKLKDLRIDEVDRTPAENLAYQVGWTTLILKWESDEQSGLEVKTPTETFKWNQLGELYQHFTETYASLTIKELTAQLNDNVDAIGNMIDSMSDEVLFKPHMRNWADSATKNAVWEVYKFIHINTVAPFGTFRTKIRKWKKVALK | soluble |
| MIMKANIFNIQRFSIHDGPGIRTVVFFKGCPLRCPWCSNPESQHRPPQILWDKKKCFYGHLCEVKCPAGCLNFENNNLVFSADNCTGCKSCITQCPGKALTFVGNMMELDEVMEEVLKDMDFYQESKGGVTLSGGEVLVQPDFAAALLKKCKENGIHTALETTAFSTPLVFSKVLANTDLLLLDIKHYNDREHIKYTGVSNQSILENLDFAVTMKVPVVARIPVIPSVNNTIQDAKEFVKLLKEHRVDTVNLLPFHQFGEKKYEELQVPYQLKDVKALRPEDMTEYYNVFKNAGLNVSM | not soluble |

Source: the DeepSol protein solubility set
